2 substances from publication PMC4312760 can be followed below.

The target in assay [1] is Boxer virus (BV, GI.8) P domain, wild type, as P particle (Boxer virus (human norovirus GI.8)). The experiment in a line: SEC; gel filtration on Superdex 200 followed by SDS-PAGE; P particles form a peak at 830 kDa. Background: Size exclusion chromatography separates by hydrodynamic size, large species first.
In assay [2] the target is Boxer virus (BV, GI.8) VP1 P domain, Q227-L526 (P dimer) (Boxer virus (human norovirus GI.8)). The experiment in a line: crystal structure; P protein at 10 mg/mL (native) or 14 mg/mL with Le^b or Le^y tetrasaccharide, hanging drop, 0.1 mol/L LiCl, 18% PEG 3350, 10% MPD, 16°C; space group P6_(1), two protomers in the asymmetric unit.

In turn, “Boxer virus (BV, GI.8) P domain, wild type, as P particle (domain or fragment)” returned an efficiency of P particle formation in assay [1] of 80%.

Consider “Boxer virus (BV, GI.8) VP1 P domain, Q227-L526 (P dimer) (domain or fragment)”, for which the stoichiometry N (as a rule, the number of molecules, sites or subunits per partner or assembly) in assay [2] was 2.
